The target in assay [1] is SARS-CoV-2 Delta (B.1.617.2) receptor-binding domain (SARS-CoV-2 Delta (B.1.617.2), strain).
Assay [2] deals with T1, SARS-CoV-2 G614 (wild-type) receptor-binding domain (SARS-CoV-2, UniProt P0DTC2).
The target in assay [3] is SARS-CoV-2 Alpha (B.1.1.7) receptor-binding domain (SARS-CoV-2 Alpha (B.1.1.7), strain).
Assay [4] deals with T1, SARS-CoV-2 G614 (wild-type) …. Put plainly: ELISA. To be noted: both partners purified.

Broadly, the Kd is the constant that tells how readily two partners part at equilibrium.

B1: rmAb23 (antibody, V domains shown)
VH: EVQLVESGGGLIQPGGSLRLSCAASGFTVSSNYMSWVRQAPGKGLEWVAVIYSGGSTDYADSVKGRFTISRDNSKNTLHLQMNSLRAEDTAVYYCARDLVVYGMDVWGQGTTVTVSS
VL: DIQLTQSPSFLSASVGDRVTITCRASQGISSYLAWYQQKPGKAPKLLIYAASTLQSGVPSRFSGSGSGTEFTLTISSLQPEDFATYYCQQLNSYPLTFGPGTKVDIK
As to B1, the binding result in assay [1] and in assay [3] was “binds” each time. This molecule showed a Kd in assay [2] of 6.5 nM.

B2: 01A05 (antibody, V domains shown)
VH: QVQLVQSGAEVKKPGASVKVSCKASGYTFTSYGISWVRQAPGQGLEWMGWISADNGNTNYAQKLQGRVTMTTDTSTSTAYMELRSLRSDDTAVYYCARVPMFVVPNCSGGGCYRRAWEAGLDVWGQGTTVTVSS
VL: DIQMTQSPSSLSASVGDRVTITCRASQSISNYLNWYQQRPGRAPKLLIYTTSNLQSGVPSRFSGSGSGTDFTLTISSLQPEDFATYFCQQSFTGTFGGGTKVEIK
For B2, the binding result in assay [1] and in assay [3] was “binds” in each case. Moreover, in assay [2], binding was put at a Kd of 2.5 nM.

B3: XG014 IgG (antibody, V domains shown)
VH: EVQLVQSGAEVKKPGESLKISCKGSGYSFSNYWIGWVRHMPGKGLEWMGIIYPGDSDTRYSPSFQGQVTISVDTSISTAYLQWSSLKASDTAMYYCTRHQYGYNYGYFYYYIDVWGKGTTVTVSS
VL: QSVLTQPPSVSAAPGQKVTISCSGSSSNIGNNPVSWYRQVPGTAPKLLIYDNNKRPSGIPDRFSGSKSGASATLGITGLQTGDEADYYCGTWHTSLSSGVFGGGTKLTVL
notes: also called parental IgG; source: recombinant
Take B3: the binding result in assay [4] is recorded as “binds”.

The values are drawn from article PMC10801922 (Proceedings of the National Academy of Sciences of the …, 2024).
